# Data from patent US20230190885A1, “PLACENTAL ALKALINE PHOSPHATASE TO PROMOTE SCAR-FREE HEALING OF ACNE VULGARIS AND OTHER INFLAMMATORY SKIN LESIONS CAUSED BY MICROBIAL INFECTIONS” (priority 2021, published 2023).
# B1: PLAP: full length placental alkaline phosphatase, highly purified from commercial PLAP (Sigma-Aldrich) (protein, UniProt P05187 23-506, looked up)
# Alkaline phosphatase, …: IIPVEEENPDFWNREAAEALGAAKKLQPAQTAAKNLIIFLGDGMGVSTVTAARILKGQKKDKLGPEIPLAMDRFPYVALSKTYNVDKHVPDSGATATAYLCGVKGNFQTIGLSAAARFNQCNTTRGNEVISVMNRAKKAGKSVGVVTTTRVQHASPAGTYAHTVNRNWYSDADVPASARQEGCQDIATQLISNMDIDVILGGGRKYMFRMGTPDPEYPDDYSQGGTRLDGKNLVQEWLAKRQGARYVWNRTELMQASLDPSVTHLMGLFEPGDMKYEIHRDSTLDPSLMEMTEAALRLLSRNPRGFFLFVEGGRIDHGHHESRAYRALTETIMFDDAIERAGQLTSEEDTLSLVTADHSHVFSFGGYPLRGSSIFGLAPGKARDRKAYTVLLYGNGPGYVLKDGARPDVTESESGSPEYRQQSAVPLDEETHAGEDVAVFARGPQAHLVHGVQEQTFIAHVMAFAACLEPYTACDLAPPAGTTD
# Key:
# [1] = test system: HaCaT cells; experiment: MTT assay, proliferation/viability of HaCaT keratinocytes; assay type: cell-based, human; details: 72 hours; for Viability of Cells (Absorption: A540) HaCaT cells: MTT, 200 nM PLAP or rPLAP, 100 µM ATP, mean ± S.D. of eight wells
# Description: The immortalized human HaCaT keratinocyte cell line, isolated in 1988 [Boukamp, P., Petrussevska, R.T., Breitkreutz, D., Hornung, J., and Markham, A., “Normal keratinization in a spontaneously immortalized aneuploid human keratinocyte cell line,” J. Cell. Biol., 106, 761-771, 1988], was provided for these studies by the Institute of Dermatology, Szeged University, , Szeged, Hungary). HaCaT cells were maintained in 10% fetal bovine serum (FBS) and 1% penicillin-streptomycin -containing Dulbecco’s modified Eagle’s medium (DMEM) up to 80% confluency in an incubator (5% CO2, 37° C.). Cells were plated into 96 well plates at 20% confluency and incubated for 72 hours in an incubator (5% CO2, 37° C.) with 200 nM purified PLAP or rPLAP in the absence or presence of 100 µM ATP.
# (§1) The relative changes in the number of viable cells were determined by the MTT assay. This colorimetric assay is based on the ability of living healthy cells (mostly the mitochondrial compartment), but not dead cells, to reduce 3-(4,5-dimethyl thizaol-2-yl)-[…] to a blue formazan product [Carmichael, J., De Graft, W.G., Gazdar, A.F., Minna, J.D. and Mitchell, J.B. Evaluation of tetrazolium-based semi-automated colorimetric assay: Assessment of chemosensitivity resting. Cancer Res. 47, 936-942, 1987] This technique is a widely used and accepted method to accurately determine the relative numbers of viable cells. For example, this is the official method used by the National Cancer Institute to screen anticancer drugs.
# (§2) A MULTISKAN MS microplate reader purchased from Labsystems (Franklin, Massachusetts) was used to measure the formation of formazan as an increase in absorbance at a test wavelength of 540 nm and a reference wavelength of 690 nm. In the data analysis, data were expressed as mean values ± standard deviation (S.D.) of eight incubations (from eight wells) in one experiment. In each case, incubations were performed for 72 hours.
# [2] = test system: CCD 966 SK fibroblasts; experiment: MTT assay, proliferation/viability of CCD 966 SK fibroblasts; assay type: cell-based, human; details: 72 hours; for Viability of Cells (Absorption: A540) CCD 966 SK: MTT, 200 nM PLAP or rPLAP, 100 µM ATP, mean ± S.D. of eight wells
# Method: CCD 966 SK fibroblasts, originally derived from a subject and purchased from American Type Culture Collection (Alexandria, Virginia), were at passage 5 when used. The fibroblasts were maintained and treated as described above for the HaCaT cells.
# as §1, §2
# [3] = test system: shingles; experiment: Treatment of shingles in human subjects; assay type: in vivo; details: two subjects, recurrent painful shingles, oral, 4-times a day
# Method: The PLAP cream can be used for the local treatment of Shingles or other skin lesions caused by reactivated HSV-1 or HSV-2 generally, but not always, along with treatment with a prescribed antiviral drug. The same carriers and additives may be used as described for the acne treatment, The recommended amount of PLAP per 1 gram carrier is 2.0 to 10.0 mg. Generally, the larger the lesion the more PLAP per 1 gram carrier is needed. As examples, if the area of the lesion is 10 cm^2 or smaller, 2 mg per 1 gram carrier is suitable. If the area of the lesion is larger than 10 cm^2 then, depending on the lesion’s size, the recommended concentration of PLAP is between 2.1 to 10.0 mg per 1 gram carrier. Local treatment of the lesion with PLAP cream is performed once daily along with oral administration of the prescribed antiviral drug (usually four-times a day). Local administration of the antiviral drug is not recommended. In case of shingles, when the lesion treated with placental alkaline phosphatase or an active derivative is smaller than 2.0 cm^2, the use of an antiviral drug is optional. In cases of skin lesions caused by HSV-1 or HSV-2, the use of an oral antiviral drug is optional regardless of the lesion’s size.
# Two individuals (one person and one person) had recurrent painful shingles at 10-16 months intervals, usually lasting for 4-6 weeks without treatment, associated with pain lasting beyond 6 weeks that prevented them to get a good night sleep.
# When a new recurrence of shingles occurred again, the same two subjects were co-treated with local PLAP cream (5 mg PLAP in 1-gram Vaselinum cholesterinatum) and oral acyclovir. The two subjects responded to this combination treatment similarly.
# They started the treatment with acyclovir and PLAP cream on day 0. […] Complete healing of both subjects occurred by day 12 (the subject) and day 14 (the subject).
# Two female individuals, had recurrent (practically yearly) moderate shingles (one had under the breast, the other had on the arm, both approximately the size of 1-2 cm^2) previously lasting for about 2-3 weeks. […]
# [4] = test system: acne lesion; experiment: Topical treatment of acne lesions in human subjects; assay type: in vivo; details: for visible effect on acne covered area: person, before PLAP treatment
# Description: Highly purified placenta derived PLAP, or essentially pure recombinant PLAP, or an essentially pure active derivative thereof, is dispersed in a suitable carrier and gently massaged onto the acne lesion. The carrier used in the invention is Vaselinum cholesterinatum, but it may be replaced by Vaselinum flavum or Vaselinum album. Vaselinum cholesterinatum consists of about 1.5 wt.-% cholesterol, about 5.0 wt.-% cerae lanae, and about 93.5 wt.-% Vaselinum flavum. In this invention, for a preparation containing PLAP or rPLAP in a carrier the term “PLAP cream” is used.
# Other appropriate forms of PLAP containing compositions may contain other suitable carriers in the forms of gels, lotions, unguents, emollients, colloidal dispersions, suspensions, emulsions, oils, sprays, liposomes, non-ionic detergents, foams, mousses, and the like as used in the skin care industry with no damaging effects on the skin. Preferably, the chosen carrier would enable PLAP to exert its antiacne effect or at least would not reduce it. In addition, the carrier should not be comedogenic and should not inhibit interaction of PLAP with the acne lesion. In the preparation of the carrier-PLAP mixture, PLAP is first dissolved in distilled water or a suitable buffer and then mixed with the carrier. The PLAP cream contains highly purified PLAP or rPLAP, in the amount of 0.1 to 10 mg per one gram carrier gently massaged onto the area of acne lesion. The amount of PLAP depends on the severity of acne. In cases of light, moderate and severe acnes the recommended amount of PLAP per 1 gram carrier is 0.1 to 0.5 mg, 0.6 to 2 mg, and 2.1 to 10 mg PLAP, respectively. Before each daily treatment the acne lesion needs to be cleaned with a facial cleanser as recommended by the manufacturer. The length of the daily treatments is typically for about 3 weeks, but it may be extended until the lesion is healed.
# Complete recovery of the original skin texture required about 5 weeks with no additional treatments needed between 3 to 5 weeks.
# Complete recovery of the original skin texture required about 6 weeks with no additional treatments needed between 3 to 6 weeks.
# Complete recovery of the original skin texture required about 8 weeks with no additional treatments needed between 4 to 8 weeks.
# This idea was tested with 16-17-year-old males who started to develop acne during a 2 to 4-day period. Treatments (2-mg PLAP in 1-gram Vaselinum cholesterinatum) were applied at bedtime only once.
# [5] = test system: HaCaT cells; experiment: [U-14C]ATP hydrolysis and adenosine formation in intact HaCaT cells; assay type: cell-based, human; details: 2 hours
# Method: (§3) In these experiments, PLAP was incubated with human HaCaT cells and human 966 SK fibroblasts. The plasma membranes of both cell lines contain ectonucleotidases that hydrolyze ATP to result in the formation of adenosine. If PLAP binds ATP as reported earlier, it will compete with the ectonucleotidases for ATP. In this case, in the presence of PLAP the formation of adenosine, the final product of ATP hydrolysis, should be reduced. The experiment performed under this Example served to examine this possibility.
# (§4) HaCaT and 966 SK cells were grown in 10% serum containing DMEM medium (0.1 ml) in 96-well plates to confluence. First, the medium was changed for serum-free medium. […] (0.1 mM) of [U-^14C] ATP (purchased from Amersham). Incubations in an incubator were performed for 2 hours. […] aliquots were withdrawn into small centrifuge tubes followed by the addition of 0.15 ml of chloroform methanol 2:1 mixture containing 1 mM adenosine (to help UV visualization and reduce cellular uptake of [U-^14C] Adenosine) to precipitate the proteins and eliminate lipids. After centrifugation, 5 µl aliquots of the lower phase were transferred to fluorescent PEI-cellulose (polyethyleneimine-impregnated cellulose) plates, and after drying the plates they were developed with water in a flat bottom chamber. After drying and visualizing the adenosine and nucleotide spots under UV (all nucleotides remained in the application spots), the respective areas were cut out, placed in scintillation vials, and radioactivity was measured in a liquid scintillation spectrometer. Data is the mean of three independent determinations (from three separate wells) ± S.D. in the same experiment.
# [6] = test system: CCD 966 SK cells; experiment: [U-14C]ATP hydrolysis and adenosine formation in intact CCD 966 SK fibroblasts; assay type: cell-based, human; details: 2 hours
# Method: as §3, §4
# [7] = CCD 966 SK fibroblasts, agent alone
# [8] = PLAP, 500 nM, 0.1 mM [U-14C]ATP, mean ± S.D. of three wells
molecule,measurement,setting,value
"Nc1ncnc2c1ncn2[C@@H]1O[C@H](COP(=O)(O)OP(=O)(O)OP(=O)(O)O)[C@@H](O)[C@H]1O [ATP, adenosine 5′ triphosphate, reference compound]",effect on proliferation (in words),"[1]; HaCaT cells, agent alone",no effects
same,Viability of Cells (Absorption: A540) HaCaT cells,[1],0.841±0.037
same,effect on proliferation (in words),[2]; [7],no effects
same,Viability of Cells (Absorption: A540) CCD 966 SK,[2],0.686±0.029
Nc1nc2c(ncn2COCCO)c(=O)[nH]1 [acyclovir],effect on pain,[3],no significant effect on pain
same,time of full healing of shingles,[3],by the end of third week
same,remission of shingles,[3]; in 10-12 days,40-50%
O=C(OOC(=O)c1ccccc1)c1ccccc1 [benzoyl peroxide],visible effect on acne covered area,"[4]; left side of face, as prescribed for 2 months",only small visible positive effects
same,visible effect on acne covered area,"[4]; left side of face, as prescribed for 3 months",only small visible positive effects
same,visible effect on acne covered area,"[4]; right side of face, as prescribed for 2 months",only small visible positive effects
same,visible effect on acne covered area,"[4]; right side of face, as prescribed for 3 months",only small visible positive effects
B1,effect on proliferation (in words),"[1]; HaCaT cells, agent alone",clearly stimulated proliferation
same,Viability of Cells (Absorption: A540) HaCaT cells,[1],1.086± 0.047
same,effect on proliferation (in words),"[1]; epidermal (HaCaT) cells, in the presence of ATP",inhibited the proliferation
same,effect on proliferation (in words),[2]; [7],clearly stimulated proliferation
same,Viability of Cells (Absorption: A540) CCD 966 SK,[2],0.853±0.040
same,effect on proliferation (in words),"[2]; fibroblasts (CCD 966 SK), in the presence of ATP",inhibited the proliferation
same,formation of radiolabeled adenosine (in words),[5],dramatic reduction
same,hydrolysis of ATP and related nucleotides (in words),[5],greatly reduced the hydrolysis
same,Total [U-14C] nucleotide,[5]; [8],"1,572,853 ± 33,737 c.p.m./well"
same,[U-14C] Adenosine,[5]; [8],"71,048 ± 2,220 c.p.m./well"
same,formation of radiolabeled adenosine (in words),[6],dramatic reduction
same,hydrolysis of ATP and related nucleotides (in words),[6],greatly reduced the hydrolysis
same,Total [U-14C] nucleotide,[6]; [8],"1,653,949 ± 42,791 c.p.m./well"
same,[U-14C] Adenosine,[6]; [8],"34,019 ± 4,892 c.p.m./well"
same,time to complete healing of acne,"[4]; 16-17-year-old males, acne developing during 2 to 4 days, 2-mg PLAP in 1-gram Vaselinum cholesterinatum, applied once at bedtime",2 to 5 days
same,scar tissue formation,"[4]; 16-17-year-old males, early acne, 2-mg PLAP in 1-gram carrier, applied once",without any scar tissue formation
